Source: patent US20110059095A1 (Regeneron, published 2011)
Where no end group is shown, it is not given here. The star is where a group is joined. Biotin = O=C1N[C@H]2[C@H](CS[C@H]2CCCCC(=O)*)N1

Assays:
[1] = biological target: T1, Peptide A (human PAR-2), unbiotinylated (Human); test: SPR, antibody captured, steady state
T1 construct: also called Peptide A No Biotin
T1 peptide: GTNRSSKGRSLIGKVDGT
Method: (§1) Equilibrium dissociation constants (KD values) for antigen binding to selected purified PAR-2 antibodies were determined by surface kinetics using a real-time surface plasmon resonance biosensor assay. Antibody was captured on either a rabbit anti-mouse IgG polyclonal antibody (GE Healthcare, Piscataway, N.J.) surface or a goat anti-human IgG polyclonal antibody (Jackson Immuno Research Lab, West Grove, Pa.) surface created through direct amine chemical coupling to a BIACORE™ CM5 sensor chip to form a captured antibody surface. […] Antigen-antibody binding and dissociation were monitored in real time at room temperature. Kinetic analysis was performed to calculate KD and half-life of antigen/antibody complex dissociation (Table 10). For those antibodies where no T_{1/2} value is shown, steady state analysis was used to calculate the KD value. NB: no binding observed under current experimental conditions. ND: not determined.

[2] = biological target: T2, Peptide A (human PAR-2), N-terminal biotinylated (Human, N-terminal biotin via G4S linker); test: peptide ELISA titration
T2 construct: also called Peptide A N-Term
T2 peptide: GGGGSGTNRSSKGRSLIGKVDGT
Method: (§2) Anti-PAR-2 antibodies were tested for their ability to bind to the PAR-2 peptides. Various PAR-2 Peptides (Table 3) were coated onto 96-well plates at a concentration of 2 μg/ml and incubated overnight followed by blocking in a suitable blocking agent for one hour. […] Purified anti-PAR-2 antibodies were added to the plate coated with PAR-2 peptides to a final concentration ranging from 0.2 to 2.0 μg/ml and incubated for one hour at room temperature. Detection of bound antibodies was determined with Horse-Radish Peroxidase (HRP) conjugated anti-mouse or human IgG (Jackson Immuno Research Lab, West Grove, Pa.) and developed by standard colorimetric response using tetramethylbenzidine (TMB) substrate. Absorbance was read at OD₄₅₀ for 0.1 second.
(§3) In another experiment, selected anti-PAR-2 antibodies cloned onto human IgG4 were tested for binding to unbiotinylated and biotinylated forms of PAR-2 peptides (Peptides A, E, F and G; as described above). […] Absorbance values at 450 nm were analyzed using a sigmoidal dose-response model in GraphPad Prism (GraphPad Software, Inc., La Jolla, Calif.) and EC₅₀ values were reported (Table 9). EC₅₀ values are defined as the antibody concentration required to achieve 50% maximal binding to PAR-2 peptide.

[3] = biological target: T3, Peptide G (rat PAR-2), unbiotinylated (Rat (Rattus norvegicus)); test: peptide ELISA titration
T3 construct: also called Peptide G No Biotin
T3 peptide: GPNSKGRSLIGRLDTP
Method: as §2, §3

[4] = biological target: T4, Peptide E (mouse PAR-2), unbiotinylated (Mouse (Mus musculus)); test: peptide ELISA titration
T4 construct: also called Peptide E No Biotin
T4 peptide: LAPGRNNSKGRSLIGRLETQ
Method: as §2, §3

[5] = biological target: T5, Peptide G (rat PAR-2), N-terminal biotinylated (Rat (Rattus norvegicus), N-terminal biotin via G4S linker); test: peptide ELISA titration
T5 construct: also called Peptide G N-Term
T5 peptide: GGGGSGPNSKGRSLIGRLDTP
Method: as §2, §3

[6] = biological target: T6, Peptide G (rat PAR-2), C-terminal biotinylated (Rat (Rattus norvegicus), C-terminal biotin via G4S linker); test: peptide ELISA titration
T6 construct: also called Peptide G C-Term
T6 peptide: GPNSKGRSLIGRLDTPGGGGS
Method: as §2, §3

[7] = biological target: T7, Peptide F (monkey PAR-2), N-terminal biotinylated (Monkey (Macaca mulatta), N-terminal biotin via G4S linker); test: peptide ELISA titration
T7 construct: also called Peptide F N-Term
T7 sequence (peptide, as listed by the source): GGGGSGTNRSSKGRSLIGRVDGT
Method: as §2, §3

[8] = biological target: T1, Peptide A (human PAR-2), unbiotinylated; test: peptide ELISA titration
Method: as §2, §3

[9] = biological target: T8, Peptide E (mouse PAR-2), N-terminal biotinylated (Mouse (Mus musculus), N-terminal biotin via G4S linker); test: peptide ELISA titration
T8 construct: also called Peptide E N-Term
T8 peptide: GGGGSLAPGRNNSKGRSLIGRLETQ
Method: as §2, §3

[10] = biological target: T9, Peptide A (human PAR-2), C-terminal biotinylated (Human, C-terminal biotin via G4S linker); test: peptide ELISA titration
T9 construct: also called Peptide A C-Term
Method: as §2, §3

full length human PAR-2 [11] = biological target: T10, full length human PAR-2 (human, UniProt P55085 26-397); test: MSD cell binding
T10 construct: overexpressed on HEK293-derived 293/D9 cells; also called 293/D9/hPAR-2rec cells
T10 sequence (P55085 26-397 G138A limits assumed): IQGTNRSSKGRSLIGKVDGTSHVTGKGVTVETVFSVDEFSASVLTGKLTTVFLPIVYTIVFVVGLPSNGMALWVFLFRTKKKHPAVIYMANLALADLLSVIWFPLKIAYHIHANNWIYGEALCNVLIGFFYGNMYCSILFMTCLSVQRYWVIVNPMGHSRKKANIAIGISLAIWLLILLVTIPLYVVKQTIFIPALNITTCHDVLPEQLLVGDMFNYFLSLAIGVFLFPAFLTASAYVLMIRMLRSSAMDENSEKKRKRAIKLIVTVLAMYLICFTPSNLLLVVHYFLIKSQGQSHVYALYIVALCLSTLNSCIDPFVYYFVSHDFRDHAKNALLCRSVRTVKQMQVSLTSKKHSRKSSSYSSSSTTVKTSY
Method: HEK293 cells were transfected with an NF-κB-luciferase-IRES-eGFP reporter plasmid. […] A clonal cell line, named D9, having low background levels of luciferase activity and high levels of eGFP when induced with IL-1β was made by a series of successive sorts of cell populations using flow cytometry. The 293/D9 cell line was then separately transfected with human PAR-2 or mouse PAR-2 to create the stable cell lines 293/D9/h PAR-2rec and 293/D9/m PAR-2rec, respectively.
Cells were plated on MSD high-bind 96 well plates at a density of 4×10⁴ cells/well in PBS and incubated for one hour at room temperature. Cells were then blocked in PBS with 2% BSA and incubated at room temperature for one hour. Anti-PAR-2 antibodies (ranging from 100 nM to 0.098 nM) were serially diluted two-fold in PBS with 0.5% BSA and incubated with the cells for one hour at room temperature followed by washing in PBS with 0.5% BSA. Sulfo-tagged anti-human IgG antibody (MSD) at a concentration of 0.1 μg/ml was then added to the cell/antibody mixture and incubated at room temperature for an additional hour. After another wash, a 1× non-surfactant containing read buffer was added and electro-chemiluminescent signal was read on the MSD Sector Imager. Signal of antibody binding to 293/D9 cells was subtracted from signal to 293/D9/hPAR-2rec or 293/D9/mPAR-2rec cells. Subtracted data were analyzed using a sigmoidal dose-response model in GraphPad Prism and EC₅₀ and Bₘₐₓ values were reported (Table 18). EC₅₀ values are defined as the antibody concentration required to achieve 50% maximal binding (Bₘₐₓ) to cells.

[12] = biological target: T1, Peptide A (human PAR-2), unbiotinylated; test: SPR, antibody captured
Method: as §1

full length human PAR-2 [13] = biological target: T10, full length human PAR-2; test: cell-based or functional assay
full length human PAR-2 [14] = biological target: T10, full length human PAR-2; test: cell-based or functional assay; remark: listed apart in the source
[15] = biological target: T7, Peptide F (monkey PAR-2), N-terminal …; test: SPR, antibody captured
Method: as §1

[16] = biological target: T11, Peptide D (N-terminal domain of human PAR-2-mouse IgG2a) (Human); test: peptide ELISA
T11 chain: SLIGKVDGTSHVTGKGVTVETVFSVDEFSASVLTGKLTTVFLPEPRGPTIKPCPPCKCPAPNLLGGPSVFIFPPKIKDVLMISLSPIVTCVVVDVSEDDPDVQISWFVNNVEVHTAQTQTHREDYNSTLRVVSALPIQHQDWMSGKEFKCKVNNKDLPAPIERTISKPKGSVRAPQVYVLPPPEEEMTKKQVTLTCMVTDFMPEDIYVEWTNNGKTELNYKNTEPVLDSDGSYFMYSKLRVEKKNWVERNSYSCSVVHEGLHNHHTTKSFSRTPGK

[17] = biological target: T12, Peptide B (human PAR-2), unbiotinylated (Human); test: SPR, antibody captured; SPR at room temperature, monomeric peptide 15.6-250 nM injected over captured antibody
T12 construct: also called Peptide B No Biotin
T12 peptide: SLIGKVDGTSHVTG
Method: as §1

[18] = biological target: T2, Peptide A (human PAR-2), N-terminal …; test: peptide ELISA
[19] = biological target: T1, Peptide A (human PAR-2), unbiotinylated; test: peptide ELISA
[20] = biological target: T13, Peptide C (human PAR-2), N-terminal biotinylated (Human); test: peptide ELISA
T13 construct: also called Peptide C N-Term
T13 peptide: Biotin-GGGGSSLIGKV

[21] = biological target: T14, Peptide C (human PAR-2), C-terminal biotinylated (Human); test: peptide ELISA
T14 construct: also called Peptide C C-Term
T14 peptide: SLIGKVGGGGS-biotin

[22] = biological target: T9, Peptide A (human PAR-2), C-terminal …; test: peptide ELISA

B1: H4H573P (antibody, human IgG4, V domains shown)
VH: EVQLVESGGGLVQPGRSLRLSCAASGFTFDDYAMHWVRQGPGKGLEWVSGISWNGGSAGYADSVKGRFTISRDNAKNSLYLQLNSLRAEDTALYYCAKEDYAFDIWGQGTMVTVSS
VL: not shown
notes: also called H1H573P variable regions
Kd [1]: 749 nM | EC50 [2]: 0.093 nM | EC50 [3]: 0.014 nM | EC50 [4]: 0.355 nM | EC50 [5]: 0.017 nM | EC50 [6]: 10.1 nM | EC50 [7]: 0.018 nM | EC50 [8]: 0.093 nM | EC50 [9]: 0.016 nM | EC50 [10]: 0.022 nM

B2: H4H580P (antibody, human IgG4, V domains shown)
VH: QVQLVESGGGVVQPGRSLRLSCVASGFTFSRYGMHWVRQAPGKGLEWVVVISYDGINKYYADSVKGRFTISRDNSKNTVYLQMNSLRAEDTAVYHCAKGDFWSGYFDYWGQGTLVTVSS
VL: DIVMTQTPLSSPVTLGQPASISCRSSQSLVHSDGNTYLSWLHQRPGQPPRLLIYKISNRFSGVPDRFSGSGAGTDFTLQISRVEAEDVGIYYCMQATQFPTFGGGTKVEIK
notes: also called H1H580P variable regions
Bmax (full length human PAR-2 [11]): 30200 MSD Unit | EC50 (full length human PAR-2 [11]): 8.69 nM | Kd [12]: 103 nM | T1/2 [12]: 52.8 s | IC50, NF-kB-luciferase, 20 nM Trypsin (full length human PAR-2 [13]): 3.5 nM | EC50 [2]: 0.16 nM | EC50 [3]: 0.139 nM | EC50 [4]: 2.53 nM | EC50 [5]: 0.142 nM | EC50 [6]: 0.1 nM | EC50 [7]: 0.148 nM | EC50 [8]: 0.09 nM | EC50 [9]: 0.932 nM | EC50 [10]: 0.202 nM

B3: H4H578P (antibody, human IgG4, V domains shown)
VH: QVQLVESGGGVVQPGMSLRLSCAASGFTFRRYGMHWVRQAPGKGLEWVAVIWYDGSNKYYVDSVKGRFTISRDNSKNTLYLQMNSLRAEDTAVYYCASEITVGDWFDPWGQGTLVTVSS
VL: AIQMTQSPSSLSASVGDRVTITCRASQGIRNDLGWYQQKPGKAPKLLIYAASSLHSGVPSRFSGSGSGTDFTLTISSLQPEDFATYYCLQDFNYPLTFGGGTKVEIK
notes: also called H1H578P variable regions
Kd [12]: 245 nM | T1/2 [12]: 10.2 s | EC50 [2]: 0.062 nM | EC50 [3]: 0.046 nM | EC50 [4]: 2.78 nM | EC50 [5]: 0.081 nM | EC50 [7]: 0.036 nM | EC50 [8]: 0.034 nM | EC50 [9]: 0.09 nM | EC50 [10]: 0.04 nM

B4: H4H618N (antibody, human IgG4, V domains shown)
VH: EVQLLESGGGLVQPGGSLRLSCAASGFTFRSYTMTWVRQAPGKGLDWVSGITDSGAGTYYGDSVKGRFTISRDNSKNTLYLQMNSLRAEDTAVYYCVKEGDSGYDLDYWGQGTLVTVSS
VL: DIQMTQSPSSLSASVGDRVTITCRASQGISTYLAWLQQKPGKAPKSLIYATSSLQSGVPSKFSGSRSGTDFTLTISSLQPEDFATYYCQQYKSSPLTFGGGTKVEIK
notes: also called H2M618N variable regions
IC50, NF-kB-luciferase, 10 nM Human Trypsin 1 (full length human PAR-2 [14]): 92.2 nM | IC50, NF-kB-luciferase, 200 nM Factor Xa (full length human PAR-2 [14]): 47.2 nM | IC50, NF-kB-luciferase, 750 nM Lung Tryptase (full length human PAR-2 [14]): 8.5 nM | Kd [15]: 13.8 nM | T1/2 [15]: 300 s | binding result [16]: binds | IC50, NF-kB-luciferase, 20 nM Trypsin (full length human PAR-2 [13]): 50.2 nM | EC50 [2]: 0.021 nM | EC50 [7]: 0.011 nM | EC50 [8]: 0.009 nM | EC50 [10]: 0.016 nM

B5: H2M610N (antibody, V domains shown)
VH: EVQLVESGGNLVQPGRSLRLSCAASGFTFDDYAMHWVRQAPGKGLEWVSGISWNSGSRGYADSVKGRFTISRDNAKNSLYLQMNSLRTEDTAFYYCTKEDEAFDYWGQGTLVTVSS
VL: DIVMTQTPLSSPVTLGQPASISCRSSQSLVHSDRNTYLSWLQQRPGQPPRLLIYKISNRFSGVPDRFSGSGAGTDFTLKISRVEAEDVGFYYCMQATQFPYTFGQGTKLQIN
notes: chimeric: human variable, mouse constant domains
Kd [1]: 71.3 nM | Kd [17]: 360 nM | T1/2 [17]: 48 s | OD450 [18]: 1 to 4 od | OD450 [19]: 1 to 4 od | OD450 [20]: 0 to 0.09 od | OD450 [21]: 0 to 0.09 od | OD450 [22]: 1 to 4 od
